The values below come from patent publication US20180371066A1 (C2N DIAGNOSTICS, published 2018).

Test [1] has as its target T1, recombinant human Tau-412 protein (human, UniProt P10636-7 1-412).
T1 construct: Analyte of the SPR study; also called human tau (1N4R, 412 amino acids)
The experiment in a line: SPR Biacore T200, Protein A capture, mean of the VH1/VK2 runs. The method, then: (§1) Kinetic data was obtained at a flow rate of 40 μL/min to minimize any potential mass transfer effects. Two repeats of the blank (no antigen) and the 2.5 nM concentration of the analyte were programmed into the kinetic run in order to check the stability of both the surface and analyte over the kinetic cycles. For the initial kinetic runs, 2-fold dilutions of Tau-412 from 40 nM to 0.156 nM were run. For kinetic analysis and on subsequent runs, an analyte range of 20 nM to 0.625 nM was selected. This range covered multiple analyte concentrations both above and below the reported KD.
(§2) The association phase was monitored for 500 seconds to allow some of the higher concentrations of analyte to reach steady state. In order to observe a sufficient signal decrease (>10%) during the dissociation phase of the kinetic cycle, dissociation was measured for 1200 seconds. As discussed in Section 5, the Fcs were allowed to stabilize for 600 seconds after each regeneration step. The signal from the reference channel Fc1 was subtracted from that of Fc2, Fc3 and Fc4.
(§3) The kinetic parameters for the interaction of Tau-412 with the 7 mAbs as measured using the Protein A capture system on the Biacore T200 are shown in Table F-2. To correct for differences in the capture level of the antibody between each binding cycle, a local Rₘₐₓ parameter was used in the 1-to-1 binding model. Kinetic analysis was performed in three independent runs using fresh preparations of Tau-412 and antibody. Run 1 and runs 2+3 used different vials of the antigen Tau-412; therefore the reported errors associated with the mean response probably represent variation in preparation of the analyte and differences in assay set-up and run. From run 1 to runs 2+3, the amount of antibody injected was adjusted to try to get closer to the target 300 RU capture levels.

Test [2] deals with T1, recombinant human Tau-412 protein. Kind of test: SPR Biacore T200, mAb captured on Protein A, Tau-412 analyte, 1-to-1 model, chip A11/1. The method, then:
as §1, §2, §3

Another test deals with T2, PEP_2875811.
T2 peptide: YGLGDRKDQAAYTMH
The experiment in a line: peptide array of 15-mers of human tau probed with the antibody; label LIN.AA (double alanine).

The target of another test is T3, PEP_2875819.
T3 peptide: DRKDQGGYTAAQDQE
Described as above.

The target in a further test is T4, PEP_2875823.
T4 peptide: KDQGGYTMHAAQEGD
The description is as above.

In a further test the target is T5, PEP_2875825.
T5 peptide: DQGGYTMHQAAEGDT
The description is as above.

For another test, the target named is T6, human tau (human, UniProt P10636 2-60).
T6 construct: also called soluble human tau; human tau protein
The experiment in a line: competition ELISA on plate-coated human tau against biotinylated HJ8.5; IC50 normalised to chimeric HJ8.5; column C2N Run 1.

T1 sequence (P10636 other isoform, or with tags, fused parts or gaps limits assumed): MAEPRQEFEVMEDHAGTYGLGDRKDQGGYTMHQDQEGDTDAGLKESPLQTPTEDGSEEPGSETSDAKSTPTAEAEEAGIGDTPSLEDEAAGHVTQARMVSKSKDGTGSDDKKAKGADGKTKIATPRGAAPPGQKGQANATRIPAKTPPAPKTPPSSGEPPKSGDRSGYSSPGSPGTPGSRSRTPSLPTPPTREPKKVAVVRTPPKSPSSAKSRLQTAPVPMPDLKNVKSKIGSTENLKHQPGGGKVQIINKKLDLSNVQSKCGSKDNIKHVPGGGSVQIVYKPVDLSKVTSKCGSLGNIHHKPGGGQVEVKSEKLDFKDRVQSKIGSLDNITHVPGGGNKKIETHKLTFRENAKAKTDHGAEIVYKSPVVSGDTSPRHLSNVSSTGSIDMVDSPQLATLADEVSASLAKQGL
T6 sequence (P10636 2-60 limits assumed): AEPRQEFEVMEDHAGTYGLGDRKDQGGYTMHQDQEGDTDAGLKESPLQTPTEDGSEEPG

B1: VH1/VK2 humanized anti-tau antibody (C2N-8E12) (antibody, human IgG4 S228P, kappa, V domains shown)
VH: EVKVVESGGGLVQPGGSMKLSCVVSGFTFSNYWVNWVRQAPGKGLEWVAQIRLKSDNYATHYEESVKGRFTISRDDSKSSVYLQMNNLRAEDSGIYYCTNWEDYWGQGTTVTVSS
VL: DIVLTQSPDSLAVSLGERATISCRASQSVSTSRYSYIHWYQQKPGQPPKLLIKYASNLESGVPSRFSGSGSGTDFTLNIHPLEPEDFATYYCHHSWEIPLTFGQGTKLEIKR
notes: Humanized recombinant IgG4 with S241P hinge mutation, human kappa light chain; also called C2N-8EI2
On to B1, for which the values for the Kd in test [1] and in test [2] were 2.06 nM and 2.18 nM, respectively. In addition, the koff in test [1] stood at 0.000621 s⁻¹; in test [2], 0.000611 s⁻¹. The kon in test [1] is 302000 M⁻¹ s⁻¹; in test [2] it was 280000 M⁻¹ s⁻¹. Moreover, the “Binding Signal” value with PEP_2875811 came to 1880; with PEP_2875819, 2580; with PEP_2875823, 2710; in the test with PEP_2875825 it was 2580. Further, the “IC50 (Relative to Chimera)” value in the test with human tau is 1.34 relative to Chimera.
